# Biological target: vasopressin V2 receptor-RlucII (hV2R wt-RlucII) (human)
# Test: cell-based or functional assay
substance,measurement,value
Oxytocin (from UniProt P01178 20-28) (peptide),EC50 of agonist-promoted receptor internalization (decrease of BRET between receptor-RlucII and lyn-rGFP),2200 nM
